Here are results for two molecules from article PMC2860019 (Journal of molecular biology, 2010).

In general, stoichiometry N refers to a count of units in the complex or per binding partner.

Data set [1] deals with Cp(-10)149d (recombinant HBV e-antigen, residues (-10)-149, C48A, C107A, G123A; dimer) (Hepatitis B virus) (UniProt P03147). In words: AUC.
The data set “AUC” deals with the molecule itself. In words: AUC.

As for “Cp(-10)149d (recombinant HBV e-antigen, residues (-10)-149, C48A, C107A, G123A; dimer) (from UniProt P03147 1-149) (natural protein)”, the stoichiometry N in data set [1] turned out to be 2.

B1: Cp149d (HBV capsid protein residues 1-149, C48A, C107A, G123A; dimer) (domain or fragment)
chain: MDIDPYKEFGATVELLSFLPSDFFPSVRDLLDTAAALYRDALESPEHASPHHTALRQAILCWGDLMTLATWVGTNLEDPASRDLVVSYVNTNVGLKFRQLLWFHISALTFGRETVLEYLVSFAVWIRTPPAYRPPNAPILSTLPETTVV
For B1, the “stoichiometry N” value in the data set “AUC” was found to be 2.
